B1: SPSB1 (parent)
chain: DMRDPTYRPLKQELQGLDYCKPTR

Variants of: B1
Assay: protein stability index of a GFP-peptide fusion (GPS, HEK-293T) (PSI 1-6); higher = more stable
Conditions: c terminus: a fixed tail appended
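Further: lentivirally expressed fusions sorted by FACS into six bins by GFP to DsRed ratio, PSI derived from sequencing read proportions per bin multiplied by bin number.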

Protein stability index: each site, then its substitutions
D4: F 3.47, Q 3.6, G 2.97, M 2.73, L 2.77, S 2.61, C 2.96, R 3.53, I 3.13, H 2.7, K 3.13
L10: S 3.56, C 2.6, V 3.14, Q 3.68, M 3.25, K 3.22, Y 2.81, R 2.93, A 3.54, I 3.67, W 3.24
Y7: G 2.64, R 2.51, V 3.5, F 2.98, D 3.61, K 3.31, T 3.68
T23: V 3.29, W 1.76, Q 3.47, E 3.92, P 4.33, G 4.26, D 2.87, I 2.52
P9: D 3.28, C 2.52, M 2.6, W 2.99, A 2.69, G 3.51, Y 2.67, H 2.35, F 3.26, R 2.25, S 3.35, N 3.35, K 2.94, V 3.19
R3: T 3.42, G 3.21, D 2.59, Q 3.45, K 3.2, M 2.99, Y 2.8
L17: F 3.08, V 4, W 4.02, N 4.33, P 3.96, R 3.8, S 4.18, Q 4.51, Y 3.7, D 4.65
Q12: M 2.23, D 3.45, H 3.46, Y 3.12, L 3.84, W 2.35, P 3.04, I 2.35, T 3.43, E 2.87
P5: A 3.28, V 3.01, T 3.17, C 3.21, Y 2.93, N 2.93, R 2.71, H 3.88, K 3.28, Q 3.55, F 3, S 3.61, W 2.76
P22: W 2.84, N 3.92, E 4.79, Y 3.13, C 3.71, G 4.1, F 2.85, I 2.29, S 3.68, L 3.18
Y19: V 4.5, F 3.18, M 4, K 3.99, I 3.78, G 4.73, L 4.37, Q 4.48, H 4.18, C 3.91, N 4.92, R 4.4, D 4.37
G16: C 3.17, R 3.78, L 3.45, S 3.32, D 3.34, A 3.73, K 3.34, H 3.1, Q 3.94, T 3.36, P 3.06, W 3.12, M 3.35
L14: T 4.28, F 3.43, I 3.35, V 4.05, C 3.71, W 2.96, N 3.95
Q15: E 3.87, C 2.57, T 3.55, D 2.6, I 3.05, S 3.59, F 2.6, W 2.53
E13: D 3.68, V 3.1, I 2.62, K 2.83, S 3.4, H 3.07, F 2.58, N 3.03, P 3.68, Y 2.41, A 3.09
T6: I 3.63, M 2.92, F 3.24, Y 2.98, Q 3.55, C 2.91, S 3.59, L 2.71, H 2.9
R8: V 3.27, M 3.5, L 3.23, D 3.95, P 3.17

Source: the supplement of paper PMC10567573
